Here are results for 3 sequences from paper PMC11239949.

Data set [1] deals with Mucin 1 (MUC1) on MCF-7 cells; aptamer designed against the VNTR region (UniProt P15941). Description: whole-cell capture on magnetic beads (fluorescence). The settings on record: multivalent (apparent), 5x10^4 DAPI-stained MCF-7 cells added to 500 uL A-f-M13-MB (resuspended in PBS), 30 min, 37 C, one-site fit over aptamer concentration.
Data set [2] has the same target. Description: whole-cell fluorescence binding. Conditions: DBCO or NH2 at 5' (which version was used as free aptamer is not stated); 5x10^4 DAPI-stained MCF-7 cells added to 500 uL A-f-M13-MB (resuspended in PBS), 30 min, 37 C; one-site fit over aptamer concentration.

Chain of UniProt P15941 (P15941 whole entry): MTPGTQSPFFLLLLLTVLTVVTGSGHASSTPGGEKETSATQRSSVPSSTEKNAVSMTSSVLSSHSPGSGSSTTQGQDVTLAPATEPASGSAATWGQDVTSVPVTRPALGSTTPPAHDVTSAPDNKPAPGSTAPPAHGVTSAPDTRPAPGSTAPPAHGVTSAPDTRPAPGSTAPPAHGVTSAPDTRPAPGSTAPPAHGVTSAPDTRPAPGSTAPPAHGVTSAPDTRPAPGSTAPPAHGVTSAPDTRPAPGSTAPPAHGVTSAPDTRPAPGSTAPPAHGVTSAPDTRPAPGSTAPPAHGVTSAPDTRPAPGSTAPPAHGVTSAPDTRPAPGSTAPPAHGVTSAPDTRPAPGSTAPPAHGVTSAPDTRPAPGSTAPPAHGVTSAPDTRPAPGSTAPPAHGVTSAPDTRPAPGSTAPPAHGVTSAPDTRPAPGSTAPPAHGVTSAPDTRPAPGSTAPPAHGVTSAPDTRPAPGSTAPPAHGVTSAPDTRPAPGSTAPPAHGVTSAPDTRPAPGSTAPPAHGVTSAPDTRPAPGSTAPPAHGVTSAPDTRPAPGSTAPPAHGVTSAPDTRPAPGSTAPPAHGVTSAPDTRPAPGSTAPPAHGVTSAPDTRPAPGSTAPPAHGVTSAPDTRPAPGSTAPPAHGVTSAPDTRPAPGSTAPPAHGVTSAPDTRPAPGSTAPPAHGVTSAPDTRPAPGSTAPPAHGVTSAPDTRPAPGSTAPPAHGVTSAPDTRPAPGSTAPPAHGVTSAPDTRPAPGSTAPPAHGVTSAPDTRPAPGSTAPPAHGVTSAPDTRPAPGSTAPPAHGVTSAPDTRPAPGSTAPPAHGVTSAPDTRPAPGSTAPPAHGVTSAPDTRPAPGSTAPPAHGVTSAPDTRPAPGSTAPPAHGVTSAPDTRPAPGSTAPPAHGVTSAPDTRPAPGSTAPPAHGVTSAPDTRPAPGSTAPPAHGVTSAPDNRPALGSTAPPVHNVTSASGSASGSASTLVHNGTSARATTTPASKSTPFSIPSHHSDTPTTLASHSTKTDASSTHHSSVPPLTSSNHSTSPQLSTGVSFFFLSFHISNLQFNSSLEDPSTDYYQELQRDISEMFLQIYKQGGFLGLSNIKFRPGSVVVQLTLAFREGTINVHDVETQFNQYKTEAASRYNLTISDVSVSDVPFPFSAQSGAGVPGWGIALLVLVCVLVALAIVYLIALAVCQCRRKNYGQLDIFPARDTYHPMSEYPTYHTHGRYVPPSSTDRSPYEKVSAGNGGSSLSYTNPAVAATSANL

Regarding “TTTTTGCAGTTGATCCTTTGGATACCCTGG [DBCO-Apt (S2.2) clicked on M13 pVIII]”, the Kd in data set [1] (A-f-M13-MB, flexible phage, 5' DBCO, coupled to N3-PEG on M13 phage sidewall) worked out at 0.00109 nM; in data set [1] (A-r-M13-MB, PFA-treated rigid phage, 5' DBCO, coupled to N3-PEG on M13 phage sidewall), 0.0248 nM.
As for “TTTTTGCAGTTGATCCTTTGGATACCCTGG [NH2-Apt (S2.2) on magnetic beads]”, in data set [1] (A-MB, 5' NH2, coupled to carboxyl magnetic beads), the Kd was 21 nM.
“TTTTTGCAGTTGATCCTTTGGATACCCTGG [S2.2 aptamer, free (FAM-labelled)]” showed a Kd in data set [2] of 260 nM.
